Experiments:
HLA-A*31:01 = assay: IEDB peptide-MHC binding, purified MHC/competitive/radioactivity; filed as Kd, often an IC50 or EC50 that approximates it; ≥ and ≤ were set here for values at or beyond the usual limits of such assays; details: source organism: Dengue virus 1 Brazil/97-11/1997
HLA-A*11:01 [1] = assay: as above; details: source organism: Dengue virus 1 Brazil/97-11/1997
HLA-A*68:01 = assay: as above; details: source organism: Dengue virus 1 Brazil/97-11/1997
HLA-A*26:01 [2] = assay: as above
HLA-A*33:01 = assay: as above; details: source organism: Dengue virus 1 Brazil/97-11/1997
HLA-B*58:01 = assay: IEDB peptide-MHC binding, purified MHC/direct/fluorescence; filed as Kd, often an IC50 or EC50 that approximates it; ≥ and ≤ were set here for values at or beyond the usual limits of such assays
HLA-A*23:01 = assay: IEDB peptide-MHC binding, purified MHC/competitive/radioactivity; filed as Kd, often an IC50 or EC50 that approximates it; ≥ and ≤ were set here for values at or beyond the usual limits of such assays; details: source organism: Dengue virus 3 Martinique/1243/1999
HLA-A*24:02 = assay: as above
HLA-A*02:01 [3] = assay: IEDB peptide-MHC binding, purified MHC/competitive/fluorescence; ≥ and ≤ were set here for values at or beyond the usual limits of such assays
HLA-A*26:01 [4] = assay: IEDB peptide-MHC binding, purified MHC/direct/fluorescence; filed as Kd, often an IC50 or EC50 that approximates it; ≥ and ≤ were set here for values at or beyond the usual limits of such assays
HLA-B*40:01 = assay: as above; details: source organism: Influenza A virus
HLA-A*02:06 = assay: IEDB peptide-MHC binding, purified MHC/competitive/radioactivity; filed as Kd, often an IC50 or EC50 that approximates it; ≥ and ≤ were set here for values at or beyond the usual limits of such assays
HLA-A*02:03 = assay: as above
HLA-A*02:02 = assay: as above
HLA-A*02:01 [5] = assay: IEDB peptide-MHC binding, purified MHC/direct/fluorescence; filed as Kd, often an IC50 or EC50 that approximates it; ≥ and ≤ were set here for values at or beyond the usual limits of such assays
HLA-A*30:02 = assay: IEDB peptide-MHC binding, purified MHC/competitive/radioactivity; filed as Kd, often an IC50 or EC50 that approximates it; ≥ and ≤ were set here for values at or beyond the usual limits of such assays
HLA-A*02:01 [6] = assay: IEDB peptide-MHC binding, purified MHC/competitive/fluorescence; filed as Kd, often an IC50 or EC50 that approximates it; ≥ and ≤ were set here for values at or beyond the usual limits of such assays
HLA-A*03:01 = assay: IEDB peptide-MHC binding, purified MHC/direct/fluorescence; filed as Kd, often an IC50 or EC50 that approximates it; ≥ and ≤ were set here for values at or beyond the usual limits of such assays
HLA-A*69:01 = assay: as above
HLA-B*15:01 = assay: as above
HLA-A*01:01 [7] = assay: as above; details: source organism: West Nile virus
HLA-A*01:01 [8] = assay: IEDB peptide-MHC binding, purified MHC/competitive/radioactivity; filed as Kd, often an IC50 or EC50 that approximates it; ≥ and ≤ were set here for values at or beyond the usual limits of such assays
HLA-B*27:05 = assay: IEDB peptide-MHC binding, purified MHC/direct/fluorescence; filed as Kd, often an IC50 or EC50 that approximates it; ≥ and ≤ were set here for values at or beyond the usual limits of such assays; details: source organism: Homo sapiens
HLA-A*11:01 [9] = assay: as above; details: source organism: Homo sapiens
HLA-B*07:02 = assay: as above; details: source organism: Homo sapiens
[10] = source organism: Dengue virus 1 Brazil/97-11/1997
[11] = source organism: Dengue virus 3 Martinique/1243/1999
[12] = source organism: Dengue virus 3 Singapore/8120/1995
[13] = source organism: Zaire ebolavirus
[14] = source organism: Sudan ebolavirus
[15] = source organism: Mycobacterium tuberculosis
[16] = source organism: Mammarenavirus juninense
[17] = source organism: Dengue virus 2 Jamaica/1409/1983
[18] = source organism: Vaccinia virus WR
[19] = source organism: Yersinia pestis
[20] = source organism: Dengue virus 4 Philippines/H241/1956
[21] = source organism: Burkholderia mallei
[22] = source organism: Marburg virus - Musoke, Kenya, 1980

Sequence TVMDVISRR has a Kd (HLA-A*31:01) of no less than 39.3 µM, a Kd (HLA-A*11:01 [1]) of 0.0302 µM and a Kd (HLA-A*68:01) of 0.00798 µM. It also gave a Kd (HLA-A*26:01 [2]; [10]) of 2.34 µM and a Kd (HLA-A*33:01) of 0.00707 µM.

Sequence IFISANNQW has a Kd (HLA-B*58:01; source organism: Vibrio vulnificus) of 0.0228 µM.

For DFAGKTVWF, the Kd (HLA-A*23:01) was 6.48 µM and the Kd (HLA-A*24:02; [11]) was 3.03 µM.

Sequence LFSGVSWIM has a Kd (HLA-A*24:02; [12]) of 0.141 µM.

With LQLNETIYT the IC50 (HLA-A*02:01 [3]; [13]) was 2.7 µM.

Work on KAFSMPLGV yielded an IC50 (HLA-A*02:01 [3]; [14]) of 9.08 µM.

Work on ETAEAMHAS yielded a Kd (HLA-A*26:01 [4]; [15]) of 0.071 µM.

Work on VQHPELTGL yielded a Kd (HLA-B*40:01) of 0.137 µM.

AMPGVLSYV gave a Kd (HLA-A*02:06; [16]) of 0.0218 µM, a Kd (HLA-A*02:03; [16]) of 0.00729 µM and a Kd (HLA-A*02:02; [16]) of 0.00422 µM. It also gave a Kd (HLA-A*02:01 [5]; [16]) of 0.0036 µM.

SRNSTHEMY was tested, and the Kd (HLA-A*30:02; source organism: Dengue virus 4 Thailand/0348/1991) was 1.81 µM.

For EPILEYVVY, the Kd (HLA-A*26:01 [4]; source organism: Francisella tularensis subsp. tularensis FSC033) was 0.827 µM.

With LLPFGQLSI the Kd (HLA-A*02:01 [6]; source organism: Escherichia coli O139:H28 str. E24377A) was 0.147 µM.

Work on LPYTFMLRK yielded a Kd (HLA-A*03:01; source organism: Escherichia coli) of no less than 20 µM.

IWGRKSWPL was tested, and the Kd (HLA-A*24:02; [10]) was 0.0933 µM.

Work on DVFCDSKLM yielded a Kd (HLA-A*26:01 [2]; [17]) of 1.88 µM.

With LLVNEFYI the Kd (HLA-A*02:01 [6]; [18]) was 0.0587 µM.

LLAALFHDI gave a Kd (HLA-A*69:01; [19]) of 1.94 µM, a Kd (HLA-A*02:01 [5]; [19]) of 0.085 µM and a Kd (HLA-B*15:01; [19]) of 2.48 µM. It also gave a Kd (HLA-B*58:01; [19]) of 1.94 µM.

For DVDKLVCRD, the IC50 (HLA-A*02:01 [3]; [13]) was 51.9 µM.

RLGADLDAV showed an IC50 (HLA-A*02:01 [3]; [18]) of 7.72 µM.

For EVTAKWLWGF, the Kd (HLA-A*26:01 [2]; [10]) was 0.0807 µM.

With TVIEELEKL the Kd (HLA-A*26:01 [2]; [20]) was 0.496 µM.

Sequence VLRGRHDAA has a Kd (HLA-A*69:01; [21]) of no less than 20 µM and a Kd (HLA-A*02:01 [5]; [21]) of 9.25 µM.

RGDLPVWLAY gave a Kd (HLA-A*30:02; [17]) of 0.00685 µM.

MTRGILGSY was tested, and the Kd (HLA-A*01:01 [7]) was 7 µM.

Sequence ITNTIAGVA has an IC50 (HLA-A*02:01 [3]; [13]) of 19.9 µM.

Sequence ALVREGLRNV has an IC50 (HLA-A*02:01 [3]; [15]) of 0.13 µM.

KNEHKSTWHY showed a Kd (HLA-A*30:02; [10]) of 0.45 µM.

Sequence FVRLDRPHT has an IC50 (HLA-A*02:01 [3]; [14]) of no less than 101 µM.

LIPLWMAGL showed a Kd (HLA-A*26:01 [4]; source organism: Vibrio vulnificus CMCP6) of 8.98 µM.

For LLLGGTSEI, the Kd (HLA-A*69:01; [15]) was 0.846 µM.

With RMIGGIGRFYI the Kd (HLA-A*02:01 [6]; source organism: Influenza A virus (A/swine/Italy/2/1979(H1N1))) was 0.0003 µM.

Work on TWAQNIPTAI yielded a Kd (HLA-A*24:02; [11]) of 0.681 µM.

In the case of VVQHENLKY, the Kd (HLA-A*01:01 [8]; [12]) is reported as 2.4 µM and the Kd (HLA-A*30:02; [12]) is reported as 0.266 µM.

Sequence DDQEKKILM has an IC50 (HLA-A*02:01 [3]; [13]) of no less than 1720 µM.

SLFGQRIEV gave an IC50 (HLA-A*02:01 [3]; source organism: West Nile virus NY-99) of 0.204 µM and a Kd (HLA-A*02:01 [6]; source organism: West Nile virus) of 0.0009 µM.

With ERLQICQRK the Kd (HLA-B*27:05) was 1.69 µM, the Kd (HLA-A*03:01; source organism: Homo sapiens) was 10.4 µM and the Kd (HLA-A*11:01 [9]) was 9.4 µM.

FTNMEAQLI gave a Kd (HLA-A*01:01 [8]; [17]) of 2.16 µM.

TPRKKNYHF gave a Kd (HLA-A*02:01 [6]; source organism: Vibrio parahaemolyticus K5030) of no less than 20 µM.

RPVSPGKDI was tested, and the Kd (HLA-B*07:02) was 0.0453 µM.

With IGKMLESTY the Kd (HLA-A*30:02; [20]) was 0.0185 µM.

Work on EADPTGHSY yielded a Kd (HLA-B*15:01; source organism: Homo sapiens) of 13.5 µM.

Sequence DLKPQNILL has a Kd (HLA-A*02:01 [6]; source organism: Homo sapiens) of 2 µM.

In the case of TTPLISFFGL, the Kd (HLA-A*02:06; [18]) is reported as 3.36 µM, the Kd (HLA-A*02:03; [18]) is reported as 17.6 µM and the Kd (HLA-A*02:02; [18]) is reported as no less than 5 µM.

TICLKNEGV showed a Kd (HLA-A*02:06; [18]) of 0.311 µM, a Kd (HLA-A*02:03; [18]) of 0.12 µM and a Kd (HLA-A*02:02; [18]) of 0.494 µM.

Work on IAGFIENGW yielded a Kd (HLA-B*58:01; source organism: Influenza A virus (A/Sichuan/2/1987(H3N2))) of 0.144 µM.

In the case of HTQTAGPWHL, the Kd (HLA-A*01:01 [8]; [17]) is reported as no less than 70.4 µM.

For YLVVVGAVGV, the Kd (HLA-A*02:01 [6]; source organism: unidentified) was 0.01 µM.

Sequence NSTSTWVTY has a Kd (HLA-A*01:01 [8]; [17]) of 7.23 µM and a Kd (HLA-A*30:02; [17]) of 1.73 µM.

With SIILEFFLM the Kd (HLA-A*26:01 [2]; [10]) was 4.19 µM.

With FLYDRIAST the Kd (HLA-A*69:01; [22]) was 1.84 µM and the Kd (HLA-A*02:01 [5]; [22]) was 0.005 µM.

KLSDGVAVL was tested, and the IC50 (HLA-A*02:01 [3]; source organism: Homo sapiens) was 6.5 µM.

Sequence VMHINSPFKV has a Kd (HLA-A*02:06; [18]) of 0.393 µM, a Kd (HLA-A*02:03; [18]) of 0.00251 µM and a Kd (HLA-A*02:02; [18]) of 0.0603 µM.

Source: the Immune Epitope Database (IEDB)
